Measured values reported in US20240317834A1, “COMPOSITIONS AND METHODS FOR NEUROLOGICAL DISEASES” (CODA BIOTHERAPEUTICS, INC., priority 2020, published 2024).

System: Lenti-X 293T cells
Test: YFP fluorescence quenching anion reporter plate reader assay of engineered receptors stimulated with acetylcholine or a non-native ligand
Assay type: cell-based
Conditions: for percent quench of YFP fluorescence, 30 nM TC-6683: TC-6683 30 nM; for percent quench of YFP fluorescence, 300 nM TC-6683: TC-6683 300 nM; for percent quench of YFP fluorescence, 3 uM TC-6683: TC-6683 3 uM; for percent quench of YFP fluorescence, 30 uM TC-6683: TC-6683 30 uM; for percent quench of YFP fluorescence, 100 uM TC-6683: TC-6683 100 uM; for percent quench of YFP fluorescence, 10 uM ach: acetylcholine 10 uM; for percent quench of YFP fluorescence, 100 uM ach: acetylcholine 100 uM; for percent quench of YFP fluorescence, 1 mM ach: acetylcholine 1 mM; for percent quench of YFP fluorescence, 3 mM ach: acetylcholine 3 mM
Summary of the method: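 YFP quench was followed for about 1 min 43 s after ligand delivered in iodide-based ECS, pH 7.2. Values are end-of-read fluorescence (last 10 s) divided by the pre-ligand baseline (15 s). Cells were LX293T, transfected with receptor DNA a day before the assay.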

B1: CODA335: engineered chimeric LGIC receptor, L131T in SEQ ID NO: 33 (protein)
chain: MRCSPGGVWLALAASLLHVSLQGEFQRKLYKELVKNYNPLERPVANDSQPLTVYFSLSLLQIMDVDEKNQVLTTNIWLQMSWTDHYLQWNVSEYPGVKTVRFPDGQIWKPDILLYNSADERFDATFHTNVTVNSSGHCQYLPPGIFKSSCPMDLKNFPMDVQTCKLKFGSWSYGGWSLDLQMQEADISGYIPNGEWDLVGIPGKRSERFYECCKEPYPDVTFTVTMRRRMGYYLIQMYIPSLLIVILSWISFWINMDAAPARVGLGITTVLTMTTQSSGSRASLPKVSYVKAIDIWMAVCLLFVFSALLEYAAVNFVSRQHKELLRFRRKRRHHKSPMLNLFQEDEAGEGRFNFSAYGMGPACLQAKDGISVKGANNSNTTNPPPAPSKSPEEMRKLFIQRAKKIDKISRIGFPMAFLIFNMFYWIIYKIVRREDVHNQ
modifications: synthetic sequence of chimeric LGIC
For B1, the “YFP fluorescence quenching using CNL001” value (1 nM CNL001, first column) was −9.942%, the “YFP fluorescence quenching using CNL001” value (1 nM CNL001, second column) was −0.475% and the “YFP fluorescence quenching using TC-5619/Bradanicline” value (1 nM brd) was −2.39%. The “YFP fluorescence quenching using TC-5619/Bradanicline” value (3 nM brd) was −4.08%, the “YFP fluorescence quenching using Varenicline” value (3 nM var, first column) was 0.398 and the “YFP fluorescence quenching using Varenicline” value (3 nM var, second column) was 3.947. The “YFP fluorescence quenching using CNL001” value (10 nM CNL001, first column) was 17.889%, the “YFP fluorescence quenching using CNL001” value (10 nM CNL001, second column) was 38.46% and the “YFP fluorescence quenching using TC-5619/Bradanicline” value (10 nM brd) was −3.3%. For the same molecule, the “YFP fluorescence quenching using TC-5619/Bradanicline” value (30 nM brd) was −9.69%, the “YFP fluorescence quenching using Facinicline” value (30 nM fac) was 1.24 and the “YFP fluorescence quenching using Varenicline” value (30 nM var, first column) was 5.31. For the same molecule, the “YFP fluorescence quenching using Varenicline” value (30 nM var, second column) was 7.666, the “YFP fluorescence quenching using CNL001” value (50 nM CNL001, first column) was 61.741% and the “YFP fluorescence quenching using CNL001” value (50 nM CNL001, second column) was 69.159%. For the same molecule, the “YFP fluorescence quenching using ABT-126” value (50 nM abt) was −18%, the “YFP fluorescence quenching using CNL001” value (100 nM CNL001, first column) was 73.635% and the “YFP fluorescence quenching using CNL001” value (100 nM CNL001, second column) was 76.092%. The “YFP fluorescence quenching using CNL002” value (100 nM CNL002) was −14.53%, the “YFP fluorescence quenching using ABT-126” value (100 nM abt) was −16.39% and the “YFP fluorescence quenching using AZD-0328” value (100 nM azd0328) was 11.33%. The “YFP fluorescence quenching using TC-5619/Bradanicline” value (100 nM brd) was −1.05%, the “YFP fluorescence quenching using ABT-126” value (300 nM abt) was −15.05% and the “YFP fluorescence quenching using AZD-0328” value (300 nM azd0328) was 44.15%. For the same molecule, the “YFP fluorescence quenching using TC-5619/Bradanicline” value (300 nM brd) was 10.53%, the “YFP fluorescence quenching using Facinicline” value (300 nM fac) was 46.92 and the “YFP fluorescence quenching using Varenicline” value (300 nM var, first column) was 4.327. The “YFP fluorescence quenching using Varenicline” value (300 nM var, second column) was 3.275, the “YFP fluorescence quenching using Varenicline” value (500 nM var, first column) was 1.835 and the “YFP fluorescence quenching using Varenicline” value (500 nM var, second column) was 4.863. For the same molecule, the “YFP fluorescence quenching using CNL001” value (1 uM CNL001, first column) was 80.633%, the “YFP fluorescence quenching using CNL001” value (1 uM CNL001, second column) was 79.637% and the “YFP fluorescence quenching using CNL002” value (1 uM CNL002) was 6.45%. For the same molecule, the “YFP fluorescence quenching using ABT-126” value (1 uM abt) was −5.56%, the “YFP fluorescence quenching using TC-5619/Bradanicline” value (1 uM brd) was 34.72% and the “YFP fluorescence quenching using TC-6987” value (1 uM tc6987) was −0.14. The “YFP fluorescence quenching using Varenicline” value (1 uM var, first column) was 9.471, the “YFP fluorescence quenching using Varenicline” value (1 uM var, second column) was 7.505 and the “YFP fluorescence quenching using TC-6987” value (3 uM tc6987) was −8.32. The “YFP fluorescence quenching using TC-6987” value (5 uM tc6987) was −2.13, the “YFP fluorescence quenching using Facinicline” value (10 uM fac) was 79.06 and the “YFP fluorescence quenching using TC-6987” value (10 uM tc6987) was 0.13. For the same molecule, the “YFP fluorescence quenching using CNL002” value (30 uM CNL002) was 57.43%, the “YFP fluorescence quenching using AZD-0328” value (30 uM azd0328) was 80.96% and the “YFP fluorescence quenching using Facinicline” value (30 uM fac) was 81.06. The “YFP fluorescence quenching using TC-6987” value (30 uM tc6987) was −6.86, the “YFP fluorescence quenching using TC-6987” value (50 uM tc6987) was −9.5 and the “YFP fluorescence quenching using TC-6987” value (100 uM tc6987) was −10.98. For the same molecule, the “YFP fluorescence quenching using TC-6987” value (300 uM tc6987) was −12.16, the “YFP fluorescence quenching using TC-6987” value (500 uM tc6987) was −2.41 and the “percent quench of YFP fluorescence, 30 nM TC-6683” value was −13.84%. The “percent quench of YFP fluorescence, 300 nM TC-6683” value was −20.66%, the “percent quench of YFP fluorescence, 3 uM TC-6683” value was −17.86% and the “percent quench of YFP fluorescence, 30 uM TC-6683” value was −18.91%. The “percent quench of YFP fluorescence, 100 uM TC-6683” value was −16.88%, the “percent quench of YFP fluorescence, 10 uM ach” value was −9.13% and the “percent quench of YFP fluorescence, 100 uM ach” value was −9.29%. The “percent quench of YFP fluorescence, 1 mM ach” value was 0.57% and the “percent quench of YFP fluorescence, 3 mM ach” value was 35.37%.

B2: CODA339: engineered chimeric LGIC receptor, L131D in SEQ ID NO: 33 (protein)
chain: MRCSPGGVWLALAASLLHVSLQGEFQRKLYKELVKNYNPLERPVANDSQPLTVYFSLSLLQIMDVDEKNQVLTTNIWLQMSWTDHYLQWNVSEYPGVKTVRFPDGQIWKPDILLYNSADERFDATFHTNVDVNSSGHCQYLPPGIFKSSCPMDLKNFPMDVQTCKLKFGSWSYGGWSLDLQMQEADISGYIPNGEWDLVGIPGKRSERFYECCKEPYPDVTFTVTMRRRMGYYLIQMYIPSLLIVILSWISFWINMDAAPARVGLGITTVLTMTTQSSGSRASLPKVSYVKAIDIWMAVCLLFVFSALLEYAAVNFVSRQHKELLRFRRKRRHHKSPMLNLFQEDEAGEGRFNFSAYGMGPACLQAKDGISVKGANNSNTTNPPPAPSKSPEEMRKLFIQRAKKIDKISRIGFPMAFLIFNMFYWIIYKIVRREDVHNQ
modifications: synthetic sequence of chimeric LGIC
In the case of B2, the “YFP fluorescence quenching using CNL001” value (1 nM CNL001, first column) is reported as 73.711%, the “YFP fluorescence quenching using CNL001” value (1 nM CNL001, second column) is reported as 76.44% and the “YFP fluorescence quenching using TC-5619/Bradanicline” value (1 nM brd) is reported as 4.12%. For the same molecule, the “YFP fluorescence quenching using TC-5619/Bradanicline” value (3 nM brd) was 19.15%, the “YFP fluorescence quenching using Varenicline” value (3 nM var, first column) was −0.902 and the “YFP fluorescence quenching using Varenicline” value (3 nM var, second column) was −7.62. The “YFP fluorescence quenching using CNL001” value (10 nM CNL001, first column) was 77.049%, the “YFP fluorescence quenching using CNL001” value (10 nM CNL001, second column) was 77.76% and the “YFP fluorescence quenching using TC-5619/Bradanicline” value (10 nM brd) was 68.98%. The “YFP fluorescence quenching using TC-5619/Bradanicline” value (30 nM brd) was 77.29%, the “YFP fluorescence quenching using Facinicline” value (30 nM fac) was 12.67 and the “YFP fluorescence quenching using Varenicline” value (30 nM var, first column) was −6.009. The “YFP fluorescence quenching using Varenicline” value (30 nM var, second column) was −3.447, the “YFP fluorescence quenching using CNL001” value (50 nM CNL001, first column) was 77.882% and the “YFP fluorescence quenching using CNL001” value (50 nM CNL001, second column) was 78.708%. For the same molecule, the “YFP fluorescence quenching using ABT-126” value (50 nM abt) was −16.65%, the “YFP fluorescence quenching using CNL001” value (100 nM CNL001, first column) was 79.567% and the “YFP fluorescence quenching using CNL001” value (100 nM CNL001, second column) was 79.273%. For the same molecule, the “YFP fluorescence quenching using CNL002” value (100 nM CNL002) was 12.83%, the “YFP fluorescence quenching using ABT-126” value (100 nM abt) was −12.3% and the “YFP fluorescence quenching using AZD-0328” value (100 nM azd0328) was 62.87%. For the same molecule, the “YFP fluorescence quenching using TC-5619/Bradanicline” value (100 nM brd) was 81.41%, the “YFP fluorescence quenching using ABT-126” value (300 nM abt) was 18.5% and the “YFP fluorescence quenching using AZD-0328” value (300 nM azd0328) was 77.03%. For the same molecule, the “YFP fluorescence quenching using TC-5619/Bradanicline” value (300 nM brd) was 75.79%, the “YFP fluorescence quenching using Facinicline” value (300 nM fac) was 80.4 and the “YFP fluorescence quenching using Varenicline” value (300 nM var, first column) was 49.328. For the same molecule, the “YFP fluorescence quenching using Varenicline” value (300 nM var, second column) was 47.685, the “YFP fluorescence quenching using Varenicline” value (500 nM var, first column) was 66.7 and the “YFP fluorescence quenching using Varenicline” value (500 nM var, second column) was 64.798. The “YFP fluorescence quenching using CNL001” value (1 uM CNL001, first column) was 79.992%, the “YFP fluorescence quenching using CNL001” value (1 uM CNL001, second column) was 79.927% and the “YFP fluorescence quenching using CNL002” value (1 uM CNL002) was 77.73%. For the same molecule, the “YFP fluorescence quenching using ABT-126” value (1 uM abt) was 59.09%, the “YFP fluorescence quenching using TC-5619/Bradanicline” value (1 uM brd) was 82.26% and the “YFP fluorescence quenching using TC-6987” value (1 uM tc6987) was 50. The “YFP fluorescence quenching using Varenicline” value (1 uM var, first column) was 70.85, the “YFP fluorescence quenching using Varenicline” value (1 uM var, second column) was 69.038 and the “YFP fluorescence quenching using TC-6987” value (3 uM tc6987) was 80.39. For the same molecule, the “YFP fluorescence quenching using TC-6987” value (5 uM tc6987) was 79.93, the “YFP fluorescence quenching using Facinicline” value (10 uM fac) was 82.18 and the “YFP fluorescence quenching using TC-6987” value (10 uM tc6987) was 80.99. For the same molecule, the “YFP fluorescence quenching using CNL002” value (30 uM CNL002) was 80.58%, the “YFP fluorescence quenching using AZD-0328” value (30 uM azd0328) was 78.63% and the “YFP fluorescence quenching using Facinicline” value (30 uM fac) was 82.14. For the same molecule, the “YFP fluorescence quenching using TC-6987” value (30 uM tc6987) was 83.11, the “YFP fluorescence quenching using TC-6987” value (50 uM tc6987) was 83.18 and the “YFP fluorescence quenching using TC-6987” value (100 uM tc6987) was 82.16. The “YFP fluorescence quenching using TC-6987” value (300 uM tc6987) was 64.58, the “YFP fluorescence quenching using TC-6987” value (500 uM tc6987) was 76.77 and the “percent quench of YFP fluorescence, 30 nM TC-6683” value was −18.32%. For the same molecule, the “percent quench of YFP fluorescence, 300 nM TC-6683” value was −17.25%, the “percent quench of YFP fluorescence, 3 uM TC-6683” value was −10% and the “percent quench of YFP fluorescence, 30 uM TC-6683” value was −8.51%. The “percent quench of YFP fluorescence, 100 uM TC-6683” value was −9.77%, the “percent quench of YFP fluorescence, 10 uM ach” value was 4.56% and the “percent quench of YFP fluorescence, 100 uM ach” value was 10.19%. The “percent quench of YFP fluorescence, 1 mM ach” value was 77.34% and the “percent quench of YFP fluorescence, 3 mM ach” value was 77.79%.
